The record followed here is paper PMC12203938.

Assay [1] concerns the target firefly luciferase FLUC^(ΔCys, K141C, K491C), biotinylated, Alexa Fluor 647-labelled (firefly) [luciferase: P08659]. The assay is described as follows: single-molecule TIRF colocalisation and photobleaching step counting; AF647-labelled client (2 μM) with AF488-labelled sHsp or SSB (4 μM) in 50 mM phosphate buffer pH 7.4 at 42°C for up to 7 h; aliquots cross-linked with BS3 (250 μM), diluted to 1-20 nM; biotinylated FLUC or rhodanese held on a NeutrAvidin coverslip; imaged at 20°C; chance colocalisation subtracted.

Assay [2] concerns the target rhodanese^(K135C, K174C) with AviTag, biotinylated, Alexa Fluor 647-labelled (UniProt P00586). Described as above.
In assay [3] the target is chloride intracellular channel 1, CLIC1^C24 (C59A, C89A, C178A, C191A, C223A), Alexa Fluor 647-labelled (UniProt O00299). Nature of the assay: single-molecule TIRF colocalisation and photobleaching step counting; AF647-labelled CLIC (2 μM) with AF488-labelled sHsp (4 μM) in 50 mM phosphate buffer pH 7.4 at 42°C for up to 7 h; aliquots cross-linked with BS3 (250 μM), diluted to 1-20 nM; His-tagged CLIC held through a biotinylated anti-6X His antibody on a NeutrAvidin coverslip; imaged at 20°C; chance colocalisation subtracted.

In assay [4] the target is αB-crystallin with an additional C-terminal cysteine (αB-c_(C176)), Alexa Fluor 488-labelled (human) (UniProt P02511). Nature of the assay: single-molecule TIRF colocalisation and photobleaching step counting; AF647-labelled client (2 μM) with AF488-labelled sHsp or SSB (4 μM) in 50 mM phosphate buffer pH 7.4 at 42°C for up to 7 h; aliquots cross-linked with BS3 (250 μM), diluted to 1-20 nM; biotinylated FLUC or rhodanese held on a NeutrAvidin coverslip; imaged at 20°C; chance colocalisation subtracted.

Several values for one entry are separate records, joined by “and”; a condition that tells them apart may be missing. Identical values can stand only once.

Take “Hsp27 cysteine mutant (Hsp27_(C137S,C207)), Alexa Fluor 488-labelled (from UniProt P04792 1-205) (natural protein)”: in assay [1], the FLUC subunits in complexes with Hsp27 (1 h) (FLUC subunits/complex) turned out to be 5; the FLUC subunits per molecule, in and out of complexes with Hsp27 (0 h) turned out to be 2 subunits; the median FLUC subunits in complexes with Hsp27 (0.6 h) (subunits per complex) was determined as 20; the percent of client molecules colocalised with the sHsp (after 1 h) was 17%. This substance also gave a percent of client molecules colocalised with the sHsp (within 0.6 h) in assay [1] of 35%. The stoichiometry N in assay [1] (scale: Hsp27:FLUC) is 0.68 and 1.75 and 1.24. The percent of client molecules colocalised with the sHsp (within 0.3 h) in assay [2] was determined as 40%. In assay [3], this substance registered a percent of client molecules colocalised with the sHsp (first hour) of 15%. The stoichiometry N in assay [3] (scale: Hsp27:CLIC) was 0.29 and 0.69.

For the substance “single-stranded binding protein (SSB), fluorescently labelled, non-chaperone control (from UniProt P0AGE0 1-178) (natural protein)”, the percent colocalised in assay [2] was below 3%.

On to “αB-crystallin with an additional C-terminal cysteine (αB-c_(C176)), Alexa Fluor 488-labelled (from UniProt P02511 1-175) (natural protein)”, for which, in assay [4], the stoichiometry N (subunits/oligomer) is 6. In assay [1], this substance had an FLUC subunits in complexes with αB-c of 8 subunits, a colocalised αB-c subunits per complex (1 h) (subunits/complex) of 13 and a percent of client molecules colocalised with the sHsp (within 0.3 h) of 40%. Further, the percent of client molecules colocalised with the sHsp (within 0.3 h) in assay [3] was 20%.

The stoichiometry N is a count of units in the complex or per binding partner.
